The text below walks through data of patent US20170266254A1 (AILERON THERAPEUTICS, published 2017).

First the molecules themselves.
T1: C-terminally 6x Histidine-tagged Beta-Catenin (aa 134-668, 59 KD) (UniProt P35222 134-668)
T1 construct: range 134-668; Armadillo repeat region
T1 sequence: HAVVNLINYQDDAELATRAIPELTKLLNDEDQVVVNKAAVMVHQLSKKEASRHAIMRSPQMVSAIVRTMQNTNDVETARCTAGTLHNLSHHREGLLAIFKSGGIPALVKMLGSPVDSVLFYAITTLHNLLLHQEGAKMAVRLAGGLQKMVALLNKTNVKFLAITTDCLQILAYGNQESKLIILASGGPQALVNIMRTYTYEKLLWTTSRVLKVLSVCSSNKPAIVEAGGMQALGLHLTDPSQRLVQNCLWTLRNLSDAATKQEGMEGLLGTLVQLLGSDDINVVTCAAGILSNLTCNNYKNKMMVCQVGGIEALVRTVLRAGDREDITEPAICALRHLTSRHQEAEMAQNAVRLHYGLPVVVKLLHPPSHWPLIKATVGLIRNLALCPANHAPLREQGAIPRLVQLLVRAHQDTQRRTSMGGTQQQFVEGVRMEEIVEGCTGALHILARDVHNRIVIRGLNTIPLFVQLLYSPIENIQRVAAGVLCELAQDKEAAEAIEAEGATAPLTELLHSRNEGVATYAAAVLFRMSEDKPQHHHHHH

B1: SP31 (peptide)
peptide: Ac-LGANDELISFKDEGEQEEKSSENSSAE[S5]DLA[S5]VKSSLV-NH2
modifications: staple 28-32
SMILES: CC[C@H](C)[C@H](NC(=O)[C@H](CC(C)C)NC(=O)[C@H](CCC(=O)O)NC(=O)[C@H](CC(=O)O)NC(=O)[C@H](CC(N)=O)NC(=O)[C@H](C)NC(=O)CNC(=O)[C@H](CC(C)C)NC(C)=O)C(=O)N[C@@H](CO)C(=O)N[C@@H](Cc1ccccc1)C(=O)N[C@@H](CCCCN)C(=O)N[C@@H](CC(=O)O)C(=O)N[C@@H](CCC(=O)O)C(=O)NCC(=O)N[C@@H](CCC(=O)O)C(=O)N[C@@H](CCC(N)=O)C(=O)N[C@@H](CCC(=O)O)C(=O)N[C@@H](CCC(=O)O)C(=O)N[C@@H](CCCCN)C(=O)N[C@@H](CO)C(=O)N[C@@H](CO)C(=O)N[C@@H](CCC(=O)O)C(=O)N[C@@H](CC(N)=O)C(=O)N[C@@H](CO)C(=O)N[C@@H](CO)C(=O)N[C@@H](C)C(=O)N[C@@H](CCC(=O)O)C(=O)N[C@@]1(C)CCCC=CCCC[C@@](C)(C(=O)N[C@H](C(=O)N[C@@H](CCCCN)C(=O)N[C@@H](CO)C(=O)N[C@@H](CO)C(=O)N[C@@H](CC(C)C)C(=O)N[C@H](C(N)=O)C(C)C)C(C)C)NC(=O)[C@H](C)NC(=O)[C@H](CC(C)C)NC(=O)[C@H](CC(=O)O)NC1=O
B2: SP57 (peptide)
peptide: LGANDELISFANQGAQEEKSSNNSSAARNLADVKSSLV
modifications: not fully specified; N-terminal acetyl; C-terminal amide; $ = (S)-alpha-(2'-pentenyl)alanine at positions 11 and 15 (first crosslink) and 27 and 31 (second crosslink), each pair joined by an all-carbon crosslinker with one double bond
B3: SP47 (peptide)
peptide: Ac-LGANDELISF[S5]DEG[S5]QEEKSSENSSA[S5]RDL[S5]NVKSSLV-NH2
modifications: staple 11-15, 27-31
SMILES: CC[C@H](C)[C@H](NC(=O)[C@H](CC(C)C)NC(=O)[C@H](CCC(=O)O)NC(=O)[C@H](CC(=O)O)NC(=O)[C@H](CC(N)=O)NC(=O)[C@H](C)NC(=O)CNC(=O)[C@H](CC(C)C)NC(C)=O)C(=O)N[C@@H](CO)C(=O)N[C@@H](Cc1ccccc1)C(=O)N[C@@]1(C)CCCC=CCCC[C@@](C)(C(=O)N[C@@H](CCC(N)=O)C(=O)N[C@@H](CCC(=O)O)C(=O)N[C@@H](CCC(=O)O)C(=O)N[C@@H](CCCCN)C(=O)N[C@@H](CO)C(=O)N[C@@H](CO)C(=O)N[C@@H](CCC(=O)O)C(=O)N[C@@H](CC(N)=O)C(=O)N[C@@H](CO)C(=O)N[C@@H](CO)C(=O)N[C@@H](C)C(=O)N[C@@]2(C)CCCC=CCCC[C@@](C)(C(=O)N[C@@H](CC(N)=O)C(=O)N[C@H](C(=O)N[C@@H](CCCCN)C(=O)N[C@@H](CO)C(=O)N[C@@H](CO)C(=O)N[C@@H](CC(C)C)C(=O)N[C@H](C(N)=O)C(C)C)C(C)C)NC(=O)[C@H](CC(C)C)NC(=O)[C@H](CC(=O)O)NC(=O)[C@H](CCCNC(=N)N)NC2=O)NC(=O)CNC(=O)[C@H](CCC(=O)O)NC(=O)[C@H](CC(=O)O)NC1=O
B4: SP58 (peptide)
peptide: Ac-LGANDELLSF[S5]DEG[S5]QQEKSSENSSA[S5]RDL[S5]NVKSSLV-NH2
modifications: staple 11-15, 27-31
SMILES: CC(=O)N[C@@H](CC(C)C)C(=O)NCC(=O)N[C@@H](C)C(=O)N[C@@H](CC(N)=O)C(=O)N[C@@H](CC(=O)O)C(=O)N[C@@H](CCC(=O)O)C(=O)N[C@@H](CC(C)C)C(=O)N[C@@H](CC(C)C)C(=O)N[C@@H](CO)C(=O)N[C@@H](Cc1ccccc1)C(=O)N[C@@]1(C)CCCC=CCCC[C@@](C)(C(=O)N[C@@H](CCC(N)=O)C(=O)N[C@@H](CCC(N)=O)C(=O)N[C@@H](CCC(=O)O)C(=O)N[C@@H](CCCCN)C(=O)N[C@@H](CO)C(=O)N[C@@H](CO)C(=O)N[C@@H](CCC(=O)O)C(=O)N[C@@H](CC(N)=O)C(=O)N[C@@H](CO)C(=O)N[C@@H](CO)C(=O)N[C@@H](C)C(=O)N[C@@]2(C)CCCC=CCCC[C@@](C)(C(=O)N[C@@H](CC(N)=O)C(=O)N[C@H](C(=O)N[C@@H](CCCCN)C(=O)N[C@@H](CO)C(=O)N[C@@H](CO)C(=O)N[C@@H](CC(C)C)C(=O)N[C@H](C(N)=O)C(C)C)C(C)C)NC(=O)[C@H](CC(C)C)NC(=O)[C@H](CC(=O)O)NC(=O)[C@H](CCCNC(=N)N)NC2=O)NC(=O)CNC(=O)[C@H](CCC(=O)O)NC(=O)[C@H](CC(=O)O)NC1=O
B5: SP59 (peptide)
peptide: B2 peptide with N12D, Q13E, N29D, D32A
modifications: not fully specified; N-terminal acetyl; C-terminal amide; $ = (S)-alpha-(2'-pentenyl)alanine at positions 11 and 15 (first crosslink) and 27 and 31 (second crosslink), each pair joined by an all-carbon crosslinker with one double bond
B6: SP38 (peptide)
peptide: LGANDELISFADEGAQEEKSSNNSSAEADLAAVKSSLV
modifications: not fully specified; N-terminal acetyl; C-terminal amide; $ = (S)-alpha-(2'-pentenyl)alanine at positions 11 and 15 (first crosslink) and 28 and 32 (second crosslink), each pair joined by an all-carbon crosslinker with one double bond
B7: SP48 (peptide)
peptide: Ac-LGANDELISF[S5]DQG[S5]QEQKSSENSSA[S5]RDL[S5]NVKSSLV-NH2
modifications: staple 11-15, 27-31
SMILES: CC[C@H](C)[C@H](NC(=O)[C@H](CC(C)C)NC(=O)[C@H](CCC(=O)O)NC(=O)[C@H](CC(=O)O)NC(=O)[C@H](CC(N)=O)NC(=O)[C@H](C)NC(=O)CNC(=O)[C@H](CC(C)C)NC(C)=O)C(=O)N[C@@H](CO)C(=O)N[C@@H](Cc1ccccc1)C(=O)N[C@@]1(C)CCCC=CCCC[C@@](C)(C(=O)N[C@@H](CCC(N)=O)C(=O)N[C@@H](CCC(=O)O)C(=O)N[C@@H](CCC(N)=O)C(=O)N[C@@H](CCCCN)C(=O)N[C@@H](CO)C(=O)N[C@@H](CO)C(=O)N[C@@H](CCC(=O)O)C(=O)N[C@@H](CC(N)=O)C(=O)N[C@@H](CO)C(=O)N[C@@H](CO)C(=O)N[C@@H](C)C(=O)N[C@@]2(C)CCCC=CCCC[C@@](C)(C(=O)N[C@@H](CC(N)=O)C(=O)N[C@H](C(=O)N[C@@H](CCCCN)C(=O)N[C@@H](CO)C(=O)N[C@@H](CO)C(=O)N[C@@H](CC(C)C)C(=O)N[C@H](C(N)=O)C(C)C)C(C)C)NC(=O)[C@H](CC(C)C)NC(=O)[C@H](CC(=O)O)NC(=O)[C@H](CCCNC(=N)N)NC2=O)NC(=O)CNC(=O)[C@H](CCC(N)=O)NC(=O)[C@H](CC(=O)O)NC1=O
B8: SP49 (peptide)
peptide: Ac-LGANDELISF[S5]DEG[S5]QQQKSSENSSA[S5]RDL[S5]NVKSSLV-NH2
modifications: staple 11-15, 27-31
SMILES: CC[C@H](C)[C@H](NC(=O)[C@H](CC(C)C)NC(=O)[C@H](CCC(=O)O)NC(=O)[C@H](CC(=O)O)NC(=O)[C@H](CC(N)=O)NC(=O)[C@H](C)NC(=O)CNC(=O)[C@H](CC(C)C)NC(C)=O)C(=O)N[C@@H](CO)C(=O)N[C@@H](Cc1ccccc1)C(=O)N[C@@]1(C)CCCC=CCCC[C@@](C)(C(=O)N[C@@H](CCC(N)=O)C(=O)N[C@@H](CCC(N)=O)C(=O)N[C@@H](CCC(N)=O)C(=O)N[C@@H](CCCCN)C(=O)N[C@@H](CO)C(=O)N[C@@H](CO)C(=O)N[C@@H](CCC(=O)O)C(=O)N[C@@H](CC(N)=O)C(=O)N[C@@H](CO)C(=O)N[C@@H](CO)C(=O)N[C@@H](C)C(=O)N[C@@]2(C)CCCC=CCCC[C@@](C)(C(=O)N[C@@H](CC(N)=O)C(=O)N[C@H](C(=O)N[C@@H](CCCCN)C(=O)N[C@@H](CO)C(=O)N[C@@H](CO)C(=O)N[C@@H](CC(C)C)C(=O)N[C@H](C(N)=O)C(C)C)C(C)C)NC(=O)[C@H](CC(C)C)NC(=O)[C@H](CC(=O)O)NC(=O)[C@H](CCCNC(=N)N)NC2=O)NC(=O)CNC(=O)[C@H](CCC(=O)O)NC(=O)[C@H](CC(=O)O)NC1=O

Positions count from the first letter of the chain named. Bridges are numbered along the chain shown (N, C = ends). [ ]: non-standard residue; d: D form. S5 = C=CCCC[C@](C)(N)C(=O)O

This test addresses T1, C-terminally 6x Histidine-tagged …. The experiment in a line: competitive fluorescence polarization, FAM-labelled linear probe as competitor, His-tagged beta-catenin 134-668. As to the method:
The following experiments are performed at room temperature unless otherwise noted. First, an assay buffer is prepared composed of 25 mM Tris-Hcl pH 7.5, 200 mM Sodium Chloride, and 5 mM CHAPS. Next, 1M DTT is added to assay buffer to a final concentration of 2 mM. […] Forty μl of this protein stock is added to all but six wells of a 96 well plate (which will serve as the free peptide and Blank). Test competitor peptides are diluted from 1 mM DMSO stocks to 2× working stocks in assay buffer. Further dilutions are made in assay buffer-DMSO as to maintain a constant DMSO concentration in all wells. The dilution is carried out such that the peptides have a working concentration range of 40 μM-0.7 μM (2×). As a benchmark, a linear, non-crosslinked peptide competitor is prepared as above but with a working concentration range of 13-0.7 μM. Fifty μl of the competitor 2× stocks are added to the 40 μl of protein solution previously transferred into the assay 96 well plate. Next, a 10× stock of the fluorescent probe is prepared. The probe is identical to the linear benchmark peptide except for the n-terminal conjugation of a FAM flourophore with Beta-Alanine spacer. A 1 mM DMSO stock of the probe is serially diluted to a final concentration of 25 nM (10×) and 10 μl of this stock is added to all wells except for those that will serve as the blank. The assay plate is stored in the dark and the reaction is allowed to run at room temperature for three hours. The reaction is then read on a Biotek Synergy 2 with the following settings: 100 ms delay, 40 measurements per well, with excitation filters of […], and emission filters of […]. Data is then analyzed in Graphpad Prism.
For orientation: Fluorescence polarisation rises when a labelled molecule tumbles more slowly, as on binding a larger partner.
The term IC50 denotes the midpoint of a concentration-inhibition curve. Regarding B1, the IC50 worked out at 248 nM. Regarding B2, the IC50 is 407 nM. With B3, the IC50 worked out at 176 nM. With B4, the IC50 was 324 nM. B5: the IC50 is 300 nM. For B6, the half-inhibitory concentration (IC50) was determined as 83 nM. Consider B7, for which the half-inhibitory concentration (IC50) was 461 nM.

Turning to B8, the IC50 was 1650 nM.
